Data as given in patent publication US20010010923A1, “MODIFIED CARBOXYPEPTIDASE” (priority 1997, published 2001).
Where a chain is given by its changes, count along the chain named. Names and notes keep the numbering of the source. “Also recorded” adds a separate entry of the source. Marks after values point to notes of the source that are not given here.

B1: M398E: carboxypeptidase Y S1' mutant, substitution M398E (protein, UniProt P00729 112-532, looked up, variant M398E)
Carboxypeptidase Y: KIKDPKILGIDPNVTQYTGYLDVEDEDKHFFFWTFESRNDPAKDPVILWLNGGPGCSSLTGLFFELGPSSIGPDLKPIGNPYSWNSNATVIFLDQPVNVGFSYSGSSGVSNTVAAGKDVYNFLELFFDQFPEYVNKGQDFHIAGESYAGHYIPVFASEILSHKDRNFNLTSVLIGNGLTDPLTQYNYYEPMACGEGGEPSVLPSEECSAMEDSLERCLGLIESCYDSQSVWSCVPATIYCNNAQLAPYQRTGRNVYDIRKDCEGGNLCYPTLQDIDDYLNQDYVKEAVGAEVDHYESCNFDINRNFLFAGDWMKPYHTAVTDLLNQDLPILVYAGDKDFICNWLGNKAWTDVLPWKYDEEFASQKVRNWTASITDEVAGEVKSYKHFTYLRVFNGGHEVPFDVPENALSMVNEWIHGGFSL
B2: T60V: carboxypeptidase Y S1' mutant, substitution T60V (protein, UniProt P00729 112-532, looked up, variant T60V)
Carboxypeptidase Y: B1 Carboxypeptidase Y with T60V, E398M
B3: T60L: carboxypeptidase Y S1' mutant, substitution T60L (protein, UniProt P00729 112-532, looked up, variant T60L)
Carboxypeptidase Y: B1 Carboxypeptidase Y with T60L, E398M
B4: T60W: carboxypeptidase Y S1' mutant, substitution T60W (protein, UniProt P00729 112-532, looked up, variant T60W)
Carboxypeptidase Y: B1 Carboxypeptidase Y with T60W, E398M
B5: T60M: carboxypeptidase Y S1' mutant, substitution T60M (protein, UniProt P00729 112-532, looked up, variant T60M)
Carboxypeptidase Y: B1 Carboxypeptidase Y with T60M, E398M
B6: M398F: carboxypeptidase Y S1' mutant, substitution M398F (protein, UniProt P00729 112-532, looked up, variant M398F)
Carboxypeptidase Y: B1 Carboxypeptidase Y with E398F
B7: M398Y: carboxypeptidase Y S1' mutant, substitution M398Y (protein, UniProt P00729 112-532, looked up, variant M398Y)
Carboxypeptidase Y: B1 Carboxypeptidase Y with E398Y
B8: M398C: carboxypeptidase Y S1' mutant, substitution M398C (protein, UniProt P00729 112-532, looked up, variant M398C)
Carboxypeptidase Y: B1 Carboxypeptidase Y with E398C
B9: M398N: carboxypeptidase Y S1' mutant, substitution M398N (protein, UniProt P00729 112-532, looked up, variant M398N)
Carboxypeptidase Y: B1 Carboxypeptidase Y with E398N
B10: T60A: carboxypeptidase Y S1' mutant, substitution T60A (protein, UniProt P00729 112-532, looked up, variant T60A)
Carboxypeptidase Y: B1 Carboxypeptidase Y with T60A, E398M
B11: T60F + M398F: carboxypeptidase Y double substitution mutant T60F + M398F (protein, UniProt P00729 112-532, looked up, variant T60F M398F)
Carboxypeptidase Y: B1 Carboxypeptidase Y with T60F, E398F
B12: N51Q + M398L: carboxypeptidase Y mutant N51Q + M398L (protein, UniProt P00729 112-532, looked up, variant N51Q M398L)
Carboxypeptidase Y: B1 Carboxypeptidase Y with N51Q, E398L

Key:
Assay type in all cases: biochemical
[1] = Transpeptidation of FA-Ala-Xaa-OH with H-Gly-NH2, Table 2; conditions: for Fraction of aminolysis (fa), P1' Ala: FA-Ala-Ala-OH 0.2 mM; for Fraction of aminolysis (fa), P1' Ala / Fraction of aminolysis (fa), P1' Leu / Fraction of aminolysis (fa), P1' Met / Fraction of aminolysis (fa), P1' Phe / Fraction of aminolysis (fa), P1' Val: 1.9 M H-Gly-NH2, pH 7.5, room temperature; for Fraction of aminolysis (fa), P1' Leu: FA-Ala-Leu-OH 0.2 mM; for Fraction of aminolysis (fa), P1' Met: FA-Ala-Met-OH 0.2 mM; for Fraction of aminolysis (fa), P1' Phe: FA-Ala-Phe-OH 0.2 mM; for Fraction of aminolysis (fa), P1' Val: FA-Ala-Val-OH 0.2 mM; for fraction of aminolysis compared to wild type, in words: larger, hydrophobic leaving group such as leucine
Experimental: (§1) Transamidation reactions were carried out generally as described in PCT Application WO 95/20039. In general, the method included dissolving the nucleophile (H-Leu-NH2, unless otherwise indicated) in 50 mM HEPES, 5 mM EDTA and adjusting the pH to 7.5, 5 μl of peptide substrate (8 mM Bz-G-A-R-A-R-A-OH, unless otherwise indicated, in methanol) was added to 190 μl nucleophile solution followed by 5 μl enzyme, resulting in a substrate concentration of 0.2 mM.
(§2) During the reaction, 20 μl aliquots were removed from the reaction mixture and added to 50 μl 1% trifluoroacetic acid to quench the reaction. The reactant composition was determined by HPLC using a Waters HPLC equipped with a C-18 Waters Novapac 4μ reverse phase column and various gradients of acetonitrile in 0.1% trifluoroacetic acid. The separation was monitored at 254 nm allowing the direct quantification of the products from the integrated peak areas. The composition of the reaction mixture was determined at least twvice during the reaction, the first when 20-50% (preferably 35%) of the substrate had been consumed in the reaction and the second time when 50-90% (preferably 80%) of the peptide substrate had been consumed.
(§3) The fraction of aminolysis (fa) was expressed as the ratio between the formed aminolysis product and the sum of all products formed. Unconsumed substrate was disregarded in the calculations.
Site specific mutagenesis was performed as described for Example 1 to produce the S1 mutants used below.
Transamidation reactions were performed as described for Example 1.

[2] = Transpeptidation of FA-Ala-OBzl with H-Leu-NH2, Table 3; conditions: for fa / KN(app): FA-Ala-OBzl 0.2 mM, pH 7.5; for fa: H-Leu-NH2; for change in famax and KN(app), in words: compared with wild type, Table 3; for KN(app): nucleophile H-Leu-NH2 concentration at which fa is half of maximum
Experimental: as §1, §2, §3
Site specific mutagenesis was performed as described in Example 1 to produce the specific substitution mutants described below. Transamidation reactions were performed as described for Example 1.
In table 3, below, KN(app) represents the nucleophile concentration at which fa is half of the maximum value (a measure for the dissociation constant of the nucleophile). famax is the highest possible fa obtained at saturation of the enzyme with the nucleophile.
KN(app) indicates the concentration at which famax/2 is reached and thus describes the apparent binding constant of the nucleophile. Because the competing hydrolysis reaction is thought to occur while the leaving group remains attached to the to the acyl-enzyme intermediate, a low KN(app) is preferred.

[3] = Transpeptidation of Bz-G-A-R-A-R-X-OH at pH 7.5 at 50% substrate consumption, Table 4; set-up: key to fa: fraction: aminolysis product / sum of all products formed; conditions: for Pmax (peak product yield) / fa: 375 mM H-Leu-NH2; for fa / t: 50% substrate consumption; for t: 375 mM H-Leu-NH2, 2 mM substrate, [E] 0.1 mg/mL
Experimental: as §1, §2, §3
Site specific mutagenesis was performed as described for Example 1 to generate the specific mutants described below. Transamidation reactions were performed as described for Examples 1.

Row | Molecule | Fraction of aminolysis (fa), P1' Ala [1] | Fraction of aminolysis (fa), P1' Leu [1] | Fraction of aminolysis (fa), P1' Met [1] | Fraction of aminolysis (fa), P1' Phe [1] | Fraction of aminolysis (fa), P1' Val [1] | fraction of aminolysis compared to wild type, in words [1] | fa [2] | change in famax and KN(app), in words [2] | KN(app) [2] | Pmax (peak product yield) ([3]; leaving group A) | fa ([3]; leaving group A) | t ([3]; leaving group A) [min] | Pmax (peak product yield) ([3]; leaving group L) | fa ([3]; leaving group L) | t ([3]; leaving group L) [min]
1 | B1 | 0.92 | 0.84 | 0.74 | 0.71 | 0.82 | improvement in fraction of aminolysis obtained; also recorded: most dramatic improvement; also recorded: enhanced transpeptidation | 0.97^a | increase in famax while decreasing KN(app) | 0.93^a mM | – | – | – | – | – | –
2 | B2 | 0.94 | 0.15 | 0.17 | 0.08 | 0.29 | – | 0.97^a | increase in both famax and KN(app) | – | – | – | – | – | – | –
3 | B3 | 0.91 | 0.13 | 0.08 | 0.24 | 0.17 | – | 1.0^b | increase in both famax and KN(app) | – | – | – | – | – | – | –
4 | B4 | 0.93 | 0.45 | 0.49 | 0.47 | 0.39 | improvement in fraction of aminolysis obtained; also recorded: most effective at increasing the fraction of aminolysis | 0.96^a | increase in both famax and KN(app) | – | – | – | – | – | – | –
5 | B5 | 0.78 | 0.03 | 0.01 | 0.18 | 0.15 | – | 0.98^b | increase in both famax and KN(app) | – | – | – | – | – | – | –
6 | B6 | 0.87 | 0.85 | 0.86 | 0.85 | 0.83 | improvement in fraction of aminolysis obtained; also recorded: most dramatic improvement; also recorded: enhanced transpeptidation | 0.96^a | increase in both famax and KN(app) | 2.3^b mM | – | – | – | – | – | –
7 | B7 | 0.90 | 0.90 | 0.90 | 0.92 | 0.89 | improvement in fraction of aminolysis obtained; also recorded: most dramatic improvement; also recorded: enhanced transpeptidation | 0.78^b | – | 5.2^c mM | – | – | – | – | – | –
8 | B8 | 0.93 | 0.75 | 0.65 | 0.64 | 0.52 | improvement in fraction of aminolysis obtained; also recorded: most dramatic improvement; also recorded: enhanced transpeptidation | 0.95^a | – | 0.74^b mM | – | – | – | – | – | –
9 | B9 | 0.92 | 0.36 | 0.70 | 0.11 | 0.52 | improvement in fraction of aminolysis obtained; also recorded: enhanced transpeptidation | 0.83^a | – | 1.2^c mM | – | – | – | – | – | –
10 | B10 | 0.91 | 0.32 | 0.16 | 0.12 | 0.44 | improvement in fraction of aminolysis obtained; also recorded: most effective at increasing the fraction of aminolysis | 0.92^a | – | – | – | – | – | – | – | –
11 | B11 | 0.86 | 0.86 | 0.82 | 0.66 | 0.73 | further improved the fraction of aminolysis | – | – | – | – | – | – | – | – | –
12 | B12 | – | – | – | – | – | – | – | – | – | >0.07 | 0.18 | 3200 | >0.04 | 0.10 | 3500
